Results from patent US20030125257A1 (published 2003).
Square brackets hold non-standard residues; d marks the D form. Ends that are not written are not given here. Sta = CC(C)C[C@H](N)[C@@H](O)CC(=O)O

Biological target: purified full-length human BACE with six C-terminal His residues, expressed in Sf9 insect cells (human, UniProt P56817 46-501)
Experiment: radioligand equilibrium binding (Scatchard plot); no inhibitor

Sequence of purified full-length human BACE with six C-terminal His residues, expressed in Sf9 insect cells (P56817 other isoform, or with tags, fused parts or gaps): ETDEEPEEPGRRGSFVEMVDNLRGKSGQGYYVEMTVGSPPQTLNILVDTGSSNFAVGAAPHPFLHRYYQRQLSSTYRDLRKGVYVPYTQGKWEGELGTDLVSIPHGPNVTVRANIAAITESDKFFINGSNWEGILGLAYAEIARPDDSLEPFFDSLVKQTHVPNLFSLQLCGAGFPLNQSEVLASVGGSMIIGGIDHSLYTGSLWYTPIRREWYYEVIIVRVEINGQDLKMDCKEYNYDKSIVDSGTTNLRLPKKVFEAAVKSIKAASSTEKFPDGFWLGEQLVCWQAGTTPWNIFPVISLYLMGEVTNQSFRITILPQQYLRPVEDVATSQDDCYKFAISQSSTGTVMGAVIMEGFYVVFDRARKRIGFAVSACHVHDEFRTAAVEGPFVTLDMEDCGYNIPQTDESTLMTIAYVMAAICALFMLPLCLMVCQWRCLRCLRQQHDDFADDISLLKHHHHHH

EVN[Sta]VAE[Tyr(3H2)]-NH2 [tritiated Compound A (Glu-Val-Asn-Statine-Val-Ala-Glu-Tyr-NH2, iodine of Tyr(I2) exchanged for 3H)]
Kd: 25 nM
